How the values were obtained:
FMC63 scFv = molecular target: T1, FMC63 scFv (biotinylated); assay: flow cytometry of yeast clones, titration with biotinylated FMC63 scFv and streptavidin-PE, MFI (geometric mean)
T1 construct: also called biotinylated FMC63 scFv; FMC63-scFv monomer
Experimental: The binding affinity of the isolated yeast clones to FMC63 was determined.

FMC63 IgG [1] = molecular target: T2, FMC63 IgG; assay: flow cytometry of yeast clones stained with 5 µM FMC63 IgG, tolerance of extra alanine residues
T2 construct: biotinylated in the flow cytometry assays; also called FMC63 IgG antibody; biotinylated FMC63 IgG
Experimental: (§1) To determine the effect of amino acid position on binding to FMC63, an alanine mutagenesis experiment was performed were each amino acid was mutated to alanine and binding to FMC63 was assessed. Specifically, a representative mimotope, […] To assess the tolerance of additional alanine residues, one alanine or two alanine residues were inserted between the two cysteine residues (SEQ ID NOs: 52 and 53) to determine the impact the loop structure had on mimotope binding to FMC63. To generate mutations, two complementary oligos with the codon replaced at the desired site were denatured at 95° C. and annealed by slow cooling to 25° C. (decreasing by 0.5° C./second). The annealed oligos were treated with T4 PNK (T4 Polynucleotide Kinase) to add a terminal phosphate, and then ligated into digested pCT-CON2 vector. Positive clones having the correct oligo inserted were tested and transformed into competent EBY100 yeast cells. Following generation of mutated clones, flow cytometry was performed by staining the yeast with 5 μM FMC63 IgG antibody to measure binding of the mimotope (FIG. 11).

FMC63 IgG [2] = molecular target: T2, FMC63 IgG; assay: flow cytometry of yeast clones stained with 5 µM FMC63 IgG, alanine scan
Experimental: as §1

FMC63 IgG [3] = molecular target: T2, FMC63 IgG; assay: flow cytometry of yeast clones, titration with 0.01-1000 nM biotinylated FMC63 IgG, MFI (geometric mean)
Excerpt: (§2) In order to validate specific sequences, clones were isolated and measured for their affinity to FMC63. Specifically, a subset of mimotope clones were selected from the fixed library sequence described in Example 5.

[4] = molecular target: T3, anti-mCD19 IgG (clone 1D3); assay: ELISA, titration with anti-mCD19 (1D3) IgG, OD(450nm); value printed beside the square curve
T3 construct: Anti-mouse CD19 IgG; also called 1D3 IgG; biotinylated 1D3 antibody

FMC63 IgG [5] = molecular target: T2, FMC63 IgG; assay: flow cytometry (MFI), yeast clone titrated with 0.01-1000 nM biotinylated FMC63 IgG; yeast-displayed clone, FACS titration 0.01-1000 nM biotinylated FMC63 IgG
Excerpt: as §2

FMC63 IgG [6] = molecular target: T2, FMC63 IgG; assay: ELISA with FMC63 IgG; ELISA, not FACS titration
Experimental: Next, the affinity of the […] (SEQ ID NO: 5) mimotope to FMC63 was determined.

FMC63 IgG [7] = molecular target: T2, FMC63 IgG; assay: flow cytometry (MFI), yeast clone titrated with 0.01-1000 nM biotinylated FMC63 IgG
Excerpt: as §2

[8] = molecular target: T3, anti-mCD19 IgG (clone 1D3); assay: ELISA, titration with anti-mCD19 (1D3) IgG, OD(450nm); value printed beside the circle curve
[9] = molecular target: T3, anti-mCD19 IgG (clone 1D3); assay: ELISA, titration with anti-mCD19 (1D3) IgG, OD(450nm); value printed beside the triangle curve

T2 sequence (VH, as listed by the source, chain 1 of 2): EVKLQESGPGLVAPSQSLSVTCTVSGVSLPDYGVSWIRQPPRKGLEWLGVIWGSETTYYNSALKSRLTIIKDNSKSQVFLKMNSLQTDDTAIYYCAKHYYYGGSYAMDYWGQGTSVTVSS
T2 sequence (VL, as listed by the source, chain 2 of 2): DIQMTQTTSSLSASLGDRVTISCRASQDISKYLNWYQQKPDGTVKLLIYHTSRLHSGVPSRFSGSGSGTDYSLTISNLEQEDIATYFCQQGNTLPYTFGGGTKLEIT
T3 sequence (VH, as listed by the source, chain 1 of 2): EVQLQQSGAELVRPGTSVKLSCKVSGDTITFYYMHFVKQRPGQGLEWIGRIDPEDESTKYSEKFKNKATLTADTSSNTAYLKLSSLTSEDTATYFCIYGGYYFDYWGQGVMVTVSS
T3 sequence (VL, as listed by the source, chain 2 of 2): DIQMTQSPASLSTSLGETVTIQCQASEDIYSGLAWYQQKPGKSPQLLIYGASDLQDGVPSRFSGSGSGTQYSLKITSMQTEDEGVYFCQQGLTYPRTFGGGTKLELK
T1 sequence (scFv, as listed by the source): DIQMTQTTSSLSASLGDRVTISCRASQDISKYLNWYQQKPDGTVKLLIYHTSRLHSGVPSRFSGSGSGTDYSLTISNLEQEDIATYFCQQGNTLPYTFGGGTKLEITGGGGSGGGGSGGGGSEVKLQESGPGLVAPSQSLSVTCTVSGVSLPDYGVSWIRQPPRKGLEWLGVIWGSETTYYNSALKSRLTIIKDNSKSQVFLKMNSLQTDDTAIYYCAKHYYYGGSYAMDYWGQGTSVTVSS

## RICPWNCKELPSPPRIFGNR [K-C2 mimotope, yeast-displayed]
FMC63 scFv
  EC50 (read off the curve): ~10 nM

B1: FMC63 Mimotope Mutant RLCPWSAACREL (SEQ ID NO: 52), yeast-displayed (peptide)
peptide: RLCPWSAACREL
notes: also called two alanine residues inserted between the two cysteine residues
FMC63 IgG [1]
  binding result: no binding (tested: 5 µM)

## ALCPWSCREL (also called alanine at R1 (position 1))
FMC63 IgG [2]
  binding result: no binding (tested: 5 µM)

## RICPWACVEL [FMC63 Mimotope(H8), yeast-displayed]
FMC63 IgG [3]
  EC50 (read off the curve): ~8 nM

## RLAPWSCREL (also called alanine at C3 (position 3))
FMC63 IgG [2]
  binding result: no binding (tested: 5 µM)

## RLCPASCREL (also called alanine at W5 (position 5))
FMC63 IgG [2]
  binding result: no binding (tested: 5 µM)

## RLCAWSCREL (also called alanine at P4 (position 4))
FMC63 IgG [2]
  binding result: no binding (tested: 5 µM)

## RLCPWDCREL [FMC63 Mimotope(F8), yeast-displayed]
FMC63 IgG [3]
  EC50 (read off the curve): ~10 nM

## RLCPWSAREL (also called alanine at C7 (position 7))
FMC63 IgG [2]
  binding result: no binding (tested: 5 µM)

B2: 1D3 Mimotope Multimer H1 + C11 (SKLKGKSGPEFHWFINVPPF) (peptide)
peptide: SKLKGKSGPEFHWFINVPPF
notes: Chemically synthesized 20 amino acid fusion of two mimotopes; also called fusion mimotope
[4]
  Kd: 102 nM

## RICPWNCKEL (also called F12 mimotope) [FMC63 Mimotope(F12), yeast-displayed]
FMC63 scFv
  EC50 (read off the curve): ~40 nM

## RHCPWNCSLL [FMC63 Mimotope (A1), yeast-displayed]
FMC63 IgG [5]
  Kd: > 1000 nM

## RHCPWNCSLL [high-affinity mimotope RHCPWNCSLL (SEQ ID NO: 5) as used in the ELISA of FIG. 7]
FMC63 IgG [6]
  Kd: ~1400 nM

## RICPWSCRAP [FMC63 Mimotope (D12), yeast-displayed]
FMC63 IgG [7]
  Kd: > 1000 nM

## SKLKGKSGPE (also called 10 amino acid mimotope) [1D3 mimotope H1 (SKLKGKSGPE) as used in the ELISA of FIG. 13]
[8]
  Kd: 190 nM

B3: 1D3 Mimotope Multimer H1 + E2 (SKLKGKSGPEIRVLMSRVFA) (peptide)
peptide: SKLKGKSGPEIRVLMSRVFA
notes: as for B2
[9]
  Kd: 6.7 nM

B4: FMC63 Mimotope Mutant RLCPWSACREL (SEQ ID NO: 53), yeast-displayed (peptide)
peptide: RLCPWSACREL
notes: also called one alanine inserted between the two cysteine residues
FMC63 IgG [1]
  binding result: no binding (tested: 5 µM)

Reference: patent US20210340524A1 (MIT, published 2021)
